Source: patent US20080194027, “Compositions, methods and kits based on small nuclear RNAs” (Trustees of the University of Pennsylvania, published 2008)

B1: HSUR5-60 Sm U1C (ssRNA)
RNA: ACUUUUG
modifications: [none]
B2: HSUR5-60 Sm U4C (ssRNA)
RNA: AUUUCUG
modifications: [none]
B3: HSUR5-60 Sm U3C (ssRNA)
RNA: AUUCUUG
modifications: [none]
B4: HSUR5-60 (nt 60-114) (ssRNA)
RNA: AUUUUUG
B5: HSUR5-60 Sm U2C (ssRNA)
RNA: AUCUUUG
modifications: [none]

How the values were obtained:
[1] = target: T1, snRNP total proteins (TPs; seven Sm proteins plus U1 snRNP proteins) (Homo sapiens, UniProt P14678;P62314;P62316;P62318;P62304;P62306;P62308;P08621;P09012;P09234 …); assay: pulldown; Sm core assembly, Y12 IP; settings: tags: anti-TMG immunopurified from HeLa; label: 32P-UTP
[2] = target: T1, snRNP total proteins (TPs; seven Sm …); assay: pulldown; Y12 IP; phosphorothioate interference at U92, C86, G109, none in Sm site; settings: tags: anti-TMG immunopurified from HeLa; label: 32P-UTP

| Binder | binding result [1] | binding result [2] |
| --- | --- | --- |
| B1 | binds |  |
| B2 | binds |  |
| B3 | binds |  |
| B4 |  | binds |
| B5 | binds |  |
